The source of these data is patent publication US20260152565A1 (Dana-Farber, published 2026).

As usually defined, the EC50 (read off the curve) is the concentration that produces a half-maximal response. Broadly, the Kd is the free concentration of one partner at which half of the binding sites on the other are occupied at equilibrium, for simple one-to-one binding. One may read the koff as a measure of how fast the partners let go of each other. For orientation: kon means the rate constant with which the complex forms.

Read-outs that look alike come from different tables or passages of the source. Some results are limits rather than exact numbers.

Assay [1] concerns the target T1, BCMA on cells, species not stated (Homo sapiens (Human), UniProt Q02223 1-184).
T1 construct: also called BCMA cells; 3T3 BCMA cells
T1 sequence: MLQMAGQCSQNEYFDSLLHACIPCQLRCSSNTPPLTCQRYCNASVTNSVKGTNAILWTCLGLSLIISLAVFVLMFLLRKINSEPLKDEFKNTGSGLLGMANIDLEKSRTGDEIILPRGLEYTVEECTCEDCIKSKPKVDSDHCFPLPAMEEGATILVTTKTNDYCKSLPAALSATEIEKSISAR
Nature of the assay: blocking of BAFF binding to BCMA cells.

The target of assay [2] is T1, BCMA on cells, species not stated. The assay is described as follows: cell binding, MFI against antibody concentration, panel title Bind to NCI-H929 cell.
Assay [3] concerns the target T2, human BCMA (TNFRSF17) expressed on cells (human, UniProt Q02223 1-184).
T2 construct: whole, on cells; also called HEK 293T-hu BCMA cells; human BCMA cell lines
T2 sequence (looked up): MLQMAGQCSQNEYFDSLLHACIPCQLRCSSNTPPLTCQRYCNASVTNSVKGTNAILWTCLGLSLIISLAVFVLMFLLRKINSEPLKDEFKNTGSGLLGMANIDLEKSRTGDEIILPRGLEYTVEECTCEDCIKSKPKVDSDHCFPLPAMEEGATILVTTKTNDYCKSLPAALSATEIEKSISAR
Nature of the assay: cell binding, MFI against antibody concentration, HEK 293T-hu BCMA cells (cell line from legend paragraph 17).

For assay [4], the target named is T3, cynomolgus monkey BCMA expressed on HEK 293T cells (cynomolgus monkey, UniProt A0A2K5UD97 1-183).
T3 construct: also called HEK 293T-cyno BCMA cells; cyno BCMA
T3 sequence (A0A2K5UD97 entry or part of it limits assumed): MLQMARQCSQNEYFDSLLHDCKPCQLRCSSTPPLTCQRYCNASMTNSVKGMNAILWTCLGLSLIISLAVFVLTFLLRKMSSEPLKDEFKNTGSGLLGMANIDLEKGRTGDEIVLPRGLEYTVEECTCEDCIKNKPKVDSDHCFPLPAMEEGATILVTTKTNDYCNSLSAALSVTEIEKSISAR
The assay is described as follows: cell binding, MFI against antibody concentration, panel title Bind to HEK293T - cyno BCMA.

The target of another assay is T4, EGFR (human, UniProt P00533 25-1210).
T4 construct: whole, on cells; also called control receptor
The assay is described as follows: cell microarray, confirmation screen, control receptor; cell left blank in Table 13.

Assay [5] deals with T5, hBCMA-his-biotin (Acro, BCA-H82E4) (human, UniProt Q02223 1-54, biotin (as printed: hBCMA-his-biotin; site not stated)).
T5 construct: Bought reagent; not shown: His tag
T5 sequence (looked up): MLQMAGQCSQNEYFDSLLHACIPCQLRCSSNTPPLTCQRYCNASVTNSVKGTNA
The assay is described as follows: biosensor kinetics, SA sensor loaded with hBCMA-his-biotin, antibody in solution. As to the method:
(§1) The sensor was streptavidin (SA), loaded with hBCMA-his-biotin from Acro catalog number BCA-H82E4, and 50 nM antibody with a 1:2 dilution factor. Association times in FIG. 5A-FIG. 5C were each 600 s and dissociation times were each 900 s.

Assay [6] concerns the target T5, hBCMA-his-biotin (Acro, BCA-H82E4). The assay is described as above. As for the experimental part:
as §1
The source holds these as a separate data set.

Description for EGFR: In order to screen the on-target specificity of one of the VH-only anti-BCMA-targeted CARs, the Retrogenix Cell Microarray Technology platform was employed, which is a high-throughput platform for screening binding interactions between a test molecule and about 6100 human surfaceome proteins.
This was performed on both fixed and live cells (FIGS. 11A-11D).

B1: PR000943 (antibody, V domains shown)
VH: EVQLVETGGGLIQPGGSLRLSCAASGFPVSSNYMSWVRQAPGKGLEWVSVIFSGGRTYYADSVKGRFTISRDNSKNTLYLQMNSLRAEDTAVYYCARRNWIDGRDAFDIWGQGTMVTVSS
notes: also called HCAb antibody PR000943; not shown: constant part (CH2 and CH3 regions of the Harbour HCAb format)
As for B1, the Span in assay [1] came to 2.19. Further, the “EC50 (read off the curve)” value is roughly 4 nM in assay [2] and roughly 0.01 µg/mL in assay [3].

B2: PR001035 (antibody, V domains shown)
VH: EVQLVETGGGLIQPGGSLRLSCAASGFTVSSNYMTWVRQAPGKGLEWVSVIFSGGSTYYADSVKGRFTISRDNSKNTLYLQMNSLRAEDTAVYYCARRIAVAGHDVFDIWGQGTMVTVSS
notes: also called HCAb antibody PR001035; not shown: constant part (CH2 and CH3 regions of the Harbour HCAb format)
In turn, B2 displayed a Span in assay [1] of 1.92. The concentration giving a half-maximal response (EC50 (read off the curve)) in assay [2] is roughly 1 nM; in assay [3] it was roughly 0.02 µg/mL.

B3: PR000940 (antibody, V domains shown)
VH: EVQLLESGGGLVQPGGSLRLSCAASGFTFSSYAMIWVRQAPGKGLEWVSGISESGGSTYYADSVKGRFTISRDNSKNTLYLQMNSLRAEDTAVYFCVKDLDDILTGYYKDYWGQGTLVTVSS
notes: Heavy chain-only antibody from Harbour HCAb mice: dimer of two heavy chains, each with VH, CH2 and CH3; also called HCAb antibody PR000940; not shown: constant part (CH2 and CH3 regions of the Harbour HCAb format)
Take B3: the 50% effective concentration (EC50 (read off the curve)) in assay [2] was roughly 2 nM. Moreover, the binding result in assay [4] is reported as “no binding”.

B4: PR001046 (antibody, V domains shown)
VH: EVQLVETGGGLIQPGGSLRLSCAASGFTVSDNYMTWVRQAPGKGLEWVSVIFSGGNTYYADSVKGRFTISRDNAKNTLYLQMNSLRAEDTALYYCARRNYDDTRGTDVFDIWGQGTMVTVSS
notes: also called HCAb antibody PR001046; PR001046 VH-only human IgG1 test antibody; not shown: constant part (CH2 and CH3)
Turning to B4, the Span in assay [1] is 1.99. Further, the binding result with EGFR is “no binding (tested: 2.5 µg/mL)”. Also, the results for the “EC50 (read off the curve)” value in assay [2] and in assay [3] were roughly 2 nM and roughly 0.02 µg/mL, respectively.

B5: PR000274 (clone CA8-J6M0) (antibody, V domains shown)
VH: QVQLVQSGAEVKKPGSSVKVSCKASGGTFSNYWMHWVRQAPGQGLEWMGATYRGHSDTYYNQKFKGRVTITADKSTSTAYMELSSLRSEDTAVYYCARGAIYDGYDVLDNWGQGTLVTVSS
VL: DIQMTQSPSSLSASVGDRVTITCSASQDISNYLNWYQQKPGKAPKLLIYYTSNLHSGVPSRFSGSGSGTDFTLTISSLQPEDFATYYCQQYRKLPWTFGQGTKLEIKR
In the case of B5, the Span in assay [1] was found to be 1.86. Moreover, in assay [5], the dissociation constant Kd was less than 0.001 nM, the koff was less than 1e-07 s⁻¹ and the on-rate (kon) came to 228000 M⁻¹ s⁻¹. Moreover, in assay [6], the dissociation constant (Kd) was less than 0.001 nM, the off-rate constant (koff) was less than 1e-07 s⁻¹ and the kon is 195000 M⁻¹ s⁻¹. Further, the concentration giving a half-maximal response (EC50 (read off the curve)) in assay [2] was roughly 10 nM.
